Experimental data published in patent publication US20080081043A1 (published 2008).

Target: T1, human CD48 (full-length hCD48), on cells (human, UniProt P09326 27-220)
T1 construct: also called membrane-associated CD48
T1 sequence: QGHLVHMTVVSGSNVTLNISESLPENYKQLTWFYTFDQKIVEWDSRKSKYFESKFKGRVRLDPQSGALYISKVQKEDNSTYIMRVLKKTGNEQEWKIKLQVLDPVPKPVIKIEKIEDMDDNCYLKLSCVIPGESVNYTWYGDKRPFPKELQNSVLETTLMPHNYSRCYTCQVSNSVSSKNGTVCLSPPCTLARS
Experiment: not told at this place (summary sentence in the description)
Experimental: Equilibrium binding assays were performed on transiently expressed hCD48. Full-length hCD48 in the expression vector pDC409 was transfected into CV-1/EBNA cells and these cells were diluted 1:20 into a carrier cell (Daudi). Serial dilutions of NAIL-Fc in binding media (RPMI 1640), 2.5% bovine serum albumin, […] HEPES, 0.02% Na azide [pH 7.2]) were incubated with cells (combination of carrier cells and transiently expressed cells 2.5×10⁶ combined cells/well) for 2 hours at 4° C. in a total of […] in a 96-well microtiter plate. The plate was centrifuged and the supernatants were aspirated. One-hundred fifty microliters of ¹²⁵I goat anti-human IgG Fcγ (Jackson Immunoresearch Laboratories, Inc., West Grove, Pa.; cat #109-006-098) was added to each well and cells were incubated another 1 hour at 4° C. Free and bound probes were separated by the pthalate oil separation method, essentially as described (Dower et al., J.Immunol. 132:751-758, 1984). Goat anti-human IgG Fcγ was labeled with […] using solid phase chloramine T analog (Iodogen; Pierce Chemical, Rockford, Ill.) to a specific radioactivity of 2.11×10¹⁵ cpm/mmol. […] No binding of C1.7-Fc or CD48-Fc proteins could be detected on nontransfected cells.

B1: NAIL-Fc polypeptide (soluble NAIL-Fc fusion protein) (Fc fusion)
chain: CQGSADHVVSISGVPLQLQPNSIQTKVDSIAWKKLLPSQNGFHHILKWENGSLPSNTSNDRFSFIVKNLSLLIKAAQQQDSGLYCLEVTSISGKVQTATFQVFVFDKVEKPRLQGQGKILDRGRCQVALSCLVSRDGNVSYAWYRGSKLIQTAGNLTYLDEEVDINGTHTYTCNVSNPVSWESHTLNLTQDCQNAHQEFRRSCDKTHTCPPCPAPEAEGAPSVFLFPPKPKDTLMISRTPEVTCVVVDVSHEDPEVKFNWYVDGVEVHNAKTKPREEQYNSTYRVVSVLTVLHQDWLNGKEYKCKVSNKALPAPIEKTISKAKGQPREPQVYTLPPSREEMTKNQVSLTCLVKGFYPSDIAVEWESNGQPENNYKTTPPVLDSDGSFFLYSKLTVDKSRWQQGNVFSCSVMHEALHNHYTQKSLSLSPGK
notes: also called C1.7-Fc; soluble NAIL polypeptide
Kd: ~0.1 nM
